# Experiment: soluble on expression in E. coli; label from the status in PepcDB or PDB records
row,Sequence,soluble on expression in E. coli
1,MTDKTIAFSLLDLAPIPEGSSAREAFSHSLDLARLAEKRGYHRYWLAEHHNMTGIASAATSVLIGYLAANTTTLHLGSGGVMLPNHLPLVIAEQFGTLNTLYPGRIDLGLGRAPGSDQRTMMALRRHMSGDIDNFPRDVAELVDWFDARDPNPHVRPVPGYGEKIPVWLLGSSLYSAQLAAQLGLPFAFASHFAPDMLFQALHLYRSNFKPSARLEKPYAMVCINIIAADSNRDAEFLFTSMQQAFVKLRRGETGQLPPPIQNMDQFWSPSEQYDVQQALSMSLVGDKAKVRHGLQSILRETDADEIMVNGQIFDHQARLHSFELAMDVKEELLG,not soluble
2,MTDLNRTALPSRTDGTVEKTDTLVVGAGQAGVAMSEHLSRLGVPHLVLERNRIAEAWRSGRWDSLVANGPAWHDRFPGMEFDIDPDGFPGKDQVAAYFEAYAKRFDAPIRTGVEVRKVVRNVGRPGFTVDTSAGTIEANRVVAATGPFQRPVIPPIAPRDERIRQIHSAHYYNPQQLPEGAVLVVGAGSSGVQIADELQRAGRQVYLSVGAHDRPPRSYRNRDFCWWLGVLGEWDAEVAKPGREHVTIAVSGARGGHTVDFRALAHQGVTLVGLTESFVDGVATFRPDLAENLARGDENYLALLDAADAYIARNGLDLPEEPEARRRLPDPQCVTDPILELDLAEAGVGSIIWATGYAVDFGWLQVDAFDRDGKPRHQRGVSSEPGVYFIGLPWLSRRGSSFIWGVWHDARHVADHIAIQRKYLAYRDAAQRQEQDRASQAPQTSLQEVS,not soluble
3,MTDPSQMQAEELLSFLEEGGTLKMLHDVSADTIEHIYAVGYNFFQSGKIEQAAKVFQLLSMLDHYQARFFIGLGAARQELGEYLQAIDAYSYAALVDINDPRPPFHSAECHLKLEQLTEAESGFYSAKEMSAGKSQYADLHQRAGIMLEAVRNKRSNLEHHHHHH,soluble
4,MTDQVFGKVSKVVCVGAGYVGGPTCAMIAHKCPHITVTVVDMNTAKIAEWNSDKLPIYEPGLDEIVFAARGRNLFFSSDIPKAIAEADLIFISVNTPTKMYGRGKGMAPDLKYVESVSRTIAQYAGGPKIVVEKSTVPVKAAESIGCILREAQKNNENLKFQVLSNPEFLAEGTAMKDLANPDRVLIGGESSPEGLQAVAELVRIYENWVPRNRIITTNTWSSELSKLVANAFLAQRISSINSISAVCEATGAEISEVAHAVGYDTRIGSKFLQASVGFGGSCFQKDVLSLVYLCESLNLPQVADYWQGVININNWQRRRFADKIIAELFNTVTDKKIAIFGFAFKKNTGDTRESSAIHVIKHLMEEHAKLSVYDPKVQKSQMLNDLASVTSAQDVERLITVESDPYAAARGAHAIVVLTEWDEFVELNYSQIHNDMQHPAAIFDGRLILDQKALREIGFRTFAIGTSPDQAYNLFGTAGY,soluble
5,MTDRGIVFNIQHFSIHDGPGIRTTVFLKGCPLRCPWCANPESQQKAPEQMLTSDGLNTKIVGEEKTVDEVIEEVLKDLDFYEESGGGMTLSGGEIFAQFDFALALLKAAKAAGLHTAIETTAFAKHEQFVTLVDYVDFIYTDLKHYNQLRHQKVTGVRNDLIIKNIHYAFQAGKEIVLRIPVIPQFNDSLDDAKAFSELFNQLEIDQVQLLPFHQFGENKYKLLGREYEMAEVKAYHPEDLADYQAVFLNHNIHCYF,not soluble
6,MTDRYIAFANSPVGRRLVGAVGLPSPLRLERWQAGRVRPVDGPLVIGGSGALAEAVLPFAGKLTDAVFAAVDGQFELPRWTAEHSPRAKAVLFDASGLTRFEQLVALRDFFQPVLKGLDKCPKVVVLGRPPESLKDPVTASVQRSLEGFTRSLGKEIRRGGNVQLLYVGKGAEDQLEGALRFFLSPKSAYVSGQVIRLAANSAQVHDWSKPLAGQRALVTGAARGIGAAIAETLARDGAEVVLLDVPPAREALEGLAARLGGRAVALDICAADAGQQLVEALPEGVDIVVHNAGITRDKTLAKMSSDFWNSVINVNLNAPQVLTQALLDGGKLHDNGRVVLLASISGIAGNLGQSNYAVSKAGLIGLAQAWAPALGKRGITINAVAPGFIETQMTAAIPLTIREAGRRMNSMSQGGLPQDVAETVAWFAQPSSGAVSGQVL,not soluble

# Source: the DeepSol protein solubility set
